Positions count from the first letter of the chain named. Names may count otherwise.

The values below come from article PMC11640301, “Escherichia coli tRNA (Gm18) methyltransferase (TrmH) requires the correct localization of its methylation site (G18) in the D-loop for efficient methylation” (Journal of Biochemistry, 2023).

In data set [1] the target is E. coli TrmH (without a tag sequence) (Escherichia coli, UniProt P0AGJ2). The data set can be described thus: radiometric filter assay, methyl transfer to tRNA transcript. Format: biochemical. The conditions noted are these: methyl donor; 200 μM SAM, tRNA^SerCGA transcript, pH 7.6, 37 °C; labelled compound.
Data set [2] concerns the target T1, TrmH (tRNA Gm18 methyltransferase) (Thermus thermophilus, UniProt Q5SM16 1-194).
T1 sequence: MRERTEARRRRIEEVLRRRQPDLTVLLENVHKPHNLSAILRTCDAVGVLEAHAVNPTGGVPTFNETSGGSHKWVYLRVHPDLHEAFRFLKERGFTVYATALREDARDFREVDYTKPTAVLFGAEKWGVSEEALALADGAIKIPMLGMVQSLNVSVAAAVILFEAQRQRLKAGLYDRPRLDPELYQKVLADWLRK
As to the kind of experiment: EMSA; 5 mM Mg-acetate, 400 mM KCl; no SAM listed; tRNA 4.25 uM; 50 mM Tris-HCl pH 7.6, 5 mM Mg-acetate, 6 mM 2-mercaptoethanol, 400 mM KCl, 5% glycerol; room temperature 30 min; 4.25 uM tRNA, 0-17 uM TrmH; 6% native PAGE. The conditions noted are these: protein: recombinant; chain copies: 2; label: none; tRNA cloverleaf, long variable region.

Data set [3] concerns the target T2, TrmH (tRNA Gm18 methyltransferase) (Escherichia coli HB101 (gene source), UniProt P0AGJ2 1-229).
T2 sequence: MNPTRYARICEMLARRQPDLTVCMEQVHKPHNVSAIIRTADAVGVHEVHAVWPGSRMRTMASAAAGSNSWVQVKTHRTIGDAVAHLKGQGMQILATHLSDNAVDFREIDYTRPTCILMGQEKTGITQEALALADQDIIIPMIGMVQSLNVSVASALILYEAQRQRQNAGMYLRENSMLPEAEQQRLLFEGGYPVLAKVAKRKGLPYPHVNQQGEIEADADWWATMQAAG
As to the kind of experiment: EMSA; 5 mM Mg-acetate, 400 mM KCl; no SAM listed; tRNA 4.25 uM, complex at enzyme below 10 uM; slightly weaker than T. thermophilus TrmH; 50 mM Tris-HCl pH 7.6, 5 mM Mg-acetate, 6 mM 2-mercaptoethanol, 400 mM KCl, 5% glycerol; room temperature 30 min; 4.25 uM tRNA, 0-17 uM TrmH; 6% native PAGE. The conditions noted are these: protein: recombinant; tags: none (pET30a, untagged); chain copies: 2; label: none; tRNA cloverleaf, long variable region.

Data set [4] concerns the molecule itself. As to the kind of experiment: crystal structure; E107G TrmH co-crystallised with 2 mM SAM; hanging-drop vapor diffusion, 20°C, 100 mM HEPES-NaOH (pH 7.6), 5% MPD, 10% PEG 6000; space group C2, one E107G-SAM molecule per asymmetric unit; dimer.

With `C[S+](CC[C@H](N)C(=O)O)C[C@H]1O[C@@H](n2cnc3c(N)ncnc32)[C@H](O)[C@@H]1O` (stereo partly drawn) [S-adenosyl-L-methionine], the “radiometric filter assay, methyl transfer to tRNA transcript” value in data set [1] is “incorporation of the methyl group from [methyl-^3H]-SAM into E. coli tRNA^SerCGA transcript was monitored”.

B1: tRNASerCGA transcript (structured_RNA)
RNA: GGAGAGAUGCCGGAGCGGCUGAACGGACCGGUCUCGAAAACCGGAGUAGGGGCAACUCUACCGGGGGUUCAAAUCCCCCUCUCUCCGCCA
modifications: none (unmodified transcript)
B1: the binding result in data set [2] and in data set [3] was “binds” throughout.

B2: E. coli TrmH (E107G) mutant, tRNA (Gm18) methyltransferase, with 6x His tag (enzyme, UniProt P0AGJ2 1-229, looked up)
chain: T2 sequence with E107G
notes: TrmH, tRNA (Gm18) 2'-O-methyltransferase of Escherichia coli; trmH gene amplified from E. coli HB101 genomic DNA with primers from the start codon to the stop codon; Glu107 replaced with Gly; No removal of the His tag is described; One molecule per asymmetric unit, so the dimer is formed by crystal symmetry; also called E107G mutant TrmH; E107G-SAM; source: E. coli BL21 (DE3) Rosetta 2, …
With B2, in data set [4], the “stoichiometry N” value is 2.
